Experimental data taken from paper PMC4673130.

Molecular target: T1, HA-tetherin (wild type), Q10589
T1 chain: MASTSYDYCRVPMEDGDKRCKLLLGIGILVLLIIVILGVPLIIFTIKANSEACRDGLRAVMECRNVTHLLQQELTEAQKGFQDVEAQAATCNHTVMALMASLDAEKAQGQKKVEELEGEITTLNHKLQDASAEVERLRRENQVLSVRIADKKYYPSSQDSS
Test: non-reducing SDS-PAGE and immunoblot; lysates of HEK293 cells transfected with HA-tetherin with or without SHBs plasmids; SDS-PAGE in the absence or presence of 2-mercaptoethanol, blot with anti-HA; dimer and monomer bands
Conditions: remark: other sources report otherwise

B1: HA-tetherin (wild type), Q10589 1-161 (natural protein)
chain: MASTSYDYCRVPMEDGDKRCKLLLGIGILVLLIIVILGVPLIIFTIKANSEACRDGLRAVMECRNVTHLLQQELTEAQKGFQDVEAQAATCNHTVMALMASLDAEKAQGQKKVEELEGEITTLNHKLQDASAEVERLRRENQVLSVRIADKKYYPSSQDSS
stoichiometry N: 2
